{"source": "the RNAGym collection of RNA variant scans (doi:10.1021/acssynbio.7b00057)", "parents": {"B1": {"name": "Pistol ribozyme (parent)", "chain": "GGGUCGUUGUUCCAUAAUCGCGUGGAUAUGGCACGCAAGUUUCUACCGGGCACCGUAAAUGUCCGACUGGAGCCGUUCGGGCGGCUAUAAACAGACCUCAGGCCCGAAGCGUGGCGGCACCUGCCGCCGGUGGUAAAAAAGAUCGGAAGAGCACACGUCU"}}, "data": [{"variants_of": "B1", "test": "aptazyme ON/OFF ratio, guanine; higher = stronger switching; co-transcriptional cleavage with and without guanine", "values": [{"variant": "GGGUCGCAUCGGGAUAAUCGCGUGGAUAUGGCACGCAAGUUUCUACCGGGCACCGUAAAUGUCCGACUGGAGCCGUUCGGGCGGCUAUAAACAGACCUCAGGCCCGAAGCGUGGCGGCACCUGCCGCCGGUGGUAAAAAAGAUCGGAAGAGCACACGUCU", "aptazyme ON/OFF ratio": 1.08}, {"variant": "GGGUCGCAUCGGUAUAAUCGCGUGGAUAUGGCACGCAAGUUUCUACCGGGCACCGUAAAUGUCCGACUGGAGCCGUUCGGGCGGCUAUAAACAGACCUCAGGCCCGAAGCGUGGCGGCACCUGCCGCCGGUGGUAAAAAAGAUCGGAAGAGCACACGUCU", "aptazyme ON/OFF ratio": 1.11}, {"variant": "GGGUCGCAUCGGAAUAAUCGCGUGGAUAUGGCACGCAAGUUUCUACCGGGCACCGUAAAUGUCCGACUGGAGCCGUUCGGGCGGCUAUAAACAGACCUCAGGCCCGAAGCGUGGCGGCACCUGCCGCCGGUGGUAAAAAAGAUCGGAAGAGCACACGUCU", "aptazyme ON/OFF ratio": 1.16}, {"variant": "GGGUCGCAUCGACAUAAUCGCGUGGAUAUGGCACGCAAGUUUCUACCGGGCACCGUAAAUGUCCGACUGGAGCCGUUCGGGCGGCUAUAAACAGACCUCAGGCCCGAAGCGUGGCGGCACCUGCCGCCGGUGGUAAAAAAGAUCGGAAGAGCACACGUCU", "aptazyme ON/OFF ratio": 1.07}, {"variant": "GGGUCGCAUCGGCAUAAUCGCGUGGAUAUGGCACGCAAGUUUCUACCGGGCACCGUAAAUGUCCGACUGGAGCCGUUCGGGCGGCUAUAAACAGACCUCAGGCCCGAAGCGUGGCGGCACCUGCCGCCGGUGGUAAAAAAGAUCGGAAGAGCACACGUCU", "aptazyme ON/OFF ratio": 1.11}, {"variant": "GGGUCGCAUCGCCAUAAUCGCGUGGAUAUGGCACGCAAGUUUCUACCGGGCACCGUAAAUGUCCGACUGGAGCCGUUCGGGCGGCUAUAAACAGACCUCAGGCCCGAAGCGUGGCGGCACCUGCCGCCGGUGGUAAAAAAGAUCGGAAGAGCACACGUCU", "aptazyme ON/OFF ratio": 1.06}, {"variant": "GGGUCGCAUCCGGAUAAUCGCGUGGAUAUGGCACGCAAGUUUCUACCGGGCACCGUAAAUGUCCGACUGGAGCCGUUCGGGCGGCUAUAAACAGACCUCAGGCCCGAAGCGUGGCGGCACCUGCCGCCGGUGGUAAAAAAGAUCGGAAGAGCACACGUCU", "aptazyme ON/OFF ratio": 1.11}, {"variant": "GGGUCGCAUCCGUAUAAUCGCGUGGAUAUGGCACGCAAGUUUCUACCGGGCACCGUAAAUGUCCGACUGGAGCCGUUCGGGCGGCUAUAAACAGACCUCAGGCCCGAAGCGUGGCGGCACCUGCCGCCGGUGGUAAAAAAGAUCGGAAGAGCACACGUCU", "aptazyme ON/OFF ratio": 1.07}, {"variant": "GGGUCGCAUCGAAAUAAUCGCGUGGAUAUGGCACGCAAGUUUCUACCGGGCACCGUAAAUGUCCGACUGGAGCCGUUCGGGCGGCUAUAAACAGACCUCAGGCCCGAAGCGUGGCGGCACCUGCCGCCGGUGGUAAAAAAGAUCGGAAGAGCACACGUCU", "aptazyme ON/OFF ratio": 1.11}, {"variant": "GGGUCGCAUCGAGAUAAUCGCGUGGAUAUGGCACGCAAGUUUCUACCGGGCACCGUAAAUGUCCGACUGGAGCCGUUCGGGCGGCUAUAAACAGACCUCAGGCCCGAAGCGUGGCGGCACCUGCCGCCGGUGGUAAAAAAGAUCGGAAGAGCACACGUCU", "aptazyme ON/OFF ratio": 1.09}, {"variant": "GGGUCGCAUCGAUAUAAUCGCGUGGAUAUGGCACGCAAGUUUCUACCGGGCACCGUAAAUGUCCGACUGGAGCCGUUCGGGCGGCUAUAAACAGACCUCAGGCCCGAAGCGUGGCGGCACCUGCCGCCGGUGGUAAAAAAGAUCGGAAGAGCACACGUCU", "aptazyme ON/OFF ratio": 1.1}, {"variant": "GGGUCGCAUCCCGAUAAUCGCGUGGAUAUGGCACGCAAGUUUCUACCGGGCACCGUAAAUGUCCGACUGGAGCCGUUCGGGCGGCUAUAAACAGACCUCAGGCCCGAAGCGUGGCGGCACCUGCCGCCGGUGGUAAAAAAGAUCGGAAGAGCACACGUCU", "aptazyme ON/OFF ratio": 1.03}, {"variant": "GGGUCGCAUCCCAAUAAUCGCGUGGAUAUGGCACGCAAGUUUCUACCGGGCACCGUAAAUGUCCGACUGGAGCCGUUCGGGCGGCUAUAAACAGACCUCAGGCCCGAAGCGUGGCGGCACCUGCCGCCGGUGGUAAAAAAGAUCGGAAGAGCACACGUCU", "aptazyme ON/OFF ratio": 1.02}, {"variant": "GGGUCGCAUCCCUAUAAUCGCGUGGAUAUGGCACGCAAGUUUCUACCGGGCACCGUAAAUGUCCGACUGGAGCCGUUCGGGCGGCUAUAAACAGACCUCAGGCCCGAAGCGUGGCGGCACCUGCCGCCGGUGGUAAAAAAGAUCGGAAGAGCACACGUCU", "aptazyme ON/OFF ratio": 1.01}, {"variant": "GGGUCGCAUCCUCAUAAUCGCGUGGAUAUGGCACGCAAGUUUCUACCGGGCACCGUAAAUGUCCGACUGGAGCCGUUCGGGCGGCUAUAAACAGACCUCAGGCCCGAAGCGUGGCGGCACCUGCCGCCGGUGGUAAAAAAGAUCGGAAGAGCACACGUCU", "aptazyme ON/OFF ratio": 1.08}, {"variant": "GGGUCGCAUCCUGAUAAUCGCGUGGAUAUGGCACGCAAGUUUCUACCGGGCACCGUAAAUGUCCGACUGGAGCCGUUCGGGCGGCUAUAAACAGACCUCAGGCCCGAAGCGUGGCGGCACCUGCCGCCGGUGGUAAAAAAGAUCGGAAGAGCACACGUCU", "aptazyme ON/OFF ratio": 1.02}, {"variant": "GGGUCGCAUCCUAAUAAUCGCGUGGAUAUGGCACGCAAGUUUCUACCGGGCACCGUAAAUGUCCGACUGGAGCCGUUCGGGCGGCUAUAAACAGACCUCAGGCCCGAAGCGUGGCGGCACCUGCCGCCGGUGGUAAAAAAGAUCGGAAGAGCACACGUCU", "aptazyme ON/OFF ratio": 1.03}, {"variant": "GGGUCGCAUCCUUAUAAUCGCGUGGAUAUGGCACGCAAGUUUCUACCGGGCACCGUAAAUGUCCGACUGGAGCCGUUCGGGCGGCUAUAAACAGACCUCAGGCCCGAAGCGUGGCGGCACCUGCCGCCGGUGGUAAAAAAGAUCGGAAGAGCACACGUCU", "aptazyme ON/OFF ratio": 1.02}]}]}
